From US20100221262A1 come the findings set out here.

In assay [1] the target is human Unc5B-His (two N-terminal Ig-like domains of Unc5B, amino acid M1 to amino acid V243, C-terminal Histidine tag) (human) (UniProt Q8IZJ1). The experiment in a line: SPR (ProteOn XPR36), antibody immobilised, human Unc5B-His as analyte.
The target in the next assay is Murine Unc5B (mouse) (UniProt Q8K1S3). In words: SPR (ProteOn XPR36), antibody immobilised, murine Unc5B-His as analyte.

Positions count from the first letter of the chain named.

What is called Kd is a measure of binding affinity in units of concentration.

Murine Unc5B (mouse), sequence (Q8K1S3 27-243 limits assumed, form in doubt): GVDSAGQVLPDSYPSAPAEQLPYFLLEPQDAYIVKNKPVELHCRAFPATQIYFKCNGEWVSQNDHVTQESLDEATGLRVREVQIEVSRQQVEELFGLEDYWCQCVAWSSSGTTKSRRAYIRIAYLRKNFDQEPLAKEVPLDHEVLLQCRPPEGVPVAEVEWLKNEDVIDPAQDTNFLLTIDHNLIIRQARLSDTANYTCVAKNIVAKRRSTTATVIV

B1: YW 88.7 (antibody, part only; not given: constant regions, part only)
heavy chain, part: EVQLVESGGGLVQPGGSLRLSCAASGFTFSDNWISWVRQAPKGLEWVGGIYPAGGYTYYADSVKGRFTISADTSKNTAYLQMSLRAEDTAVYYCAHDIHTRIAVMDYWGQGTLVTVSS
light chain: DIQMTQSPSSLSASVGDRVTITCRASQDVSTAVAWYQQKPGKAPKLLIYSASFLYSGVPSRFSGSGSGTDFTLTISSLQPEDFATYYCQQSYTTPPTFGQGTKVEIKR
With B1, the Kd in assay [1] was determined as 20 nM; in the assay with Murine Unc5B (mouse), 1.1 nM.

B2: YW 83.4 (antibody, part only; not given: constant regions, part only)
heavy chain, part: EVQLVESGGGLVQPGGSLRLSCAASGFTFTNYDIHWVRQAPKGLEWVGWISPSGGYTNYADSVKGRFTISADTSKNTAYLQMSLRAEDTAVYYCARQLWAVRGWVMDYWGQGTLVTVSS
light chain: B1 light chain
In assay [1], B2 returned a Kd of 2.9 nM.

B3: YW 88.64 (antibody, part only; not given: constant regions, part only)
heavy chain, part: EVQLVESGGGLVQPGGSLRLSCAASGFTFSNSGISWVRQAPKGLEWVGYIYPDNGSTNYADSVKGRFTISADTSKNTAYLQMSLRAEDTAVYYCARGVWWFDYWGQGTLVTVSS
light chain: B1 light chain
B3: the Kd in assay [1] was determined as 84 nM.

B4: YW 83.7 (antibody, part only; not given: constant regions, part only)
heavy chain, part: B2 heavy chain, part with N31G, Y32S, D33S, S51T, S53N, L98S, A100V, V101L, V105A
light chain: B1 light chain
For B4, in assay [1], the Kd came to 4.1 nM.
